Measured values as given in the supplement of paper PMC10567573.
± gives the standard deviation.

Assay: protein stability index of a GFP-peptide fusion (GPS, HEK-293T) (PSI 1-6); higher = more stable
[1] = treatment: DMSO, c terminus: a fixed tail appended
[2] = treatment: MLN4924 1 uM, 8 h, c terminus: a fixed tail appended
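Further: 24-mer peptide tiles fused after GFP, lentivirally expressed, FACS-sorted into six equal bins by GFP/DsRed ratio, decoded by Illumina sequencing, PSI is the read-weighted mean bin number.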

| Sequence | protein stability index [1] | protein stability index [2] | protein stability index (treatment: DMSO, c terminus: native) | protein stability index (treatment: MLN4924 1 uM, 8 h, c terminus: native) |
| --- | --- | --- | --- | --- |
| FCLLSCGILTFLAVLGRYVPGLLL [RETREG3] | 2.36 ± 0.32 | 2.09 ± 0.23 | – | – |
| VYSQASTMSIPVAMETDGPLFEDV [PPP2R5C] | 3.94 ± 0.31 | 4.14 ± 0.15 | – | – |
| MNALLEQKEQQERLREAAALGDIR [ANKRD40] | 4.66 ± 0.24 | 4.76 ± 0.18 | – | – |
| NLLGEAAGGQDMADSMLMQGSRGL [HDAC6] | 4.1 ± 0.34 | 4.09 ± 0.081 | – | – |
| PKPEPPQLVLAYDYSREVNTTEEL [FEM1A] | 5.03 ± 0.19 | 4.94 ± 0.31 | – | – |
| NRILAERIAKEIQVIPLQRDDED [IMPA1] | – | – | 3.47 ± 0.1 | 3.65 ± 0.12 |
| SLTDDKYDVAMNRAKDLVELDPEV [GOLPH3L] | 5.37 ± 0.16 | 5.4 ± 0.26 | – | – |
| MSMNNSKQLVSPAAALLSNTTCQT [PTGFR] | 3.79 ± 0.21 | 3.99 ± 0.12 | – | – |
| TWYLKTIDICHDHFGWYLGWGDCV [DHCR7] | 3.01 ± 0.34 | 3.1 ± 0.53 | – | – |
| LLAKMFGAKDSELASQNKPLWQCY [PDS5B] | 2.57 ± 0.66 | 2.3 ± 0.31 | – | – |
| KRGFEVVYMTEPIDEYCVQQLKEF [HSP90AB1] | 2.56 ± 0.35 | – | – | – |
| GAQVKELEEKCQQPASELLQDVRV [TRIM15] | 5.4 ± 0.36 | 5.43 ± 0.12 | – | – |
| WDMNSAPRLVSETAERKQEQKTGT [MFSD9] | 5.44 ± 0.2 | 5.38 ± 0.13 | – | – |
| SEEGSWAQTLAYGDMNHEWIGNEW [PPFIA4] | 3.89 ± 0.41 | 3.8 ± 0.28 | – | – |
| RSSVSRVFDCLKDGMRNKETLEGR [MED27] | 4.27 ± 0.34 | 4.38 ± 0.47 | – | – |
| RDYVRLFGIKCAKCQVGFSSSDLV [ISL2] | 2.51 ± 0.52 | 2.25 ± 0.23 | – | – |
| RLASYLDKVRALEEANADLEVKIH [KRT15] | 2.33 ± 0.15 | 2.67 ± 0.22 | – | – |
| ADRLVRVHGDPAVWWVSQFVKYLI [FUT8] | 2.25 ± 0.35 | 2.11 ± 0.26 | – | – |
| LVEHYKKAPIFTSEHGEKLYLVRA [NCK2] | 2.28 ± 0.21 | 2.42 ± 0.24 | – | – |
| QIGCKLPDDYRCSYRIHNGQKLVV [FBXO3] | 2.06 ± 0.26 | 2.18 ± 0.24 | – | – |
| ASIPEHLAYGSVITVKNLRMAIGY [POMT2] | 2.41 ± 0.29 | 2.43 ± 0.33 | – | – |
| SSNKKEKKVLNHGYDDDNHDYIVR [DYRK1B] | 4.55 ± 0.22 | 4.45 ± 0.19 | – | – |
| KQDLVPGSPDDSHPKDGPSPGGTL [DLC1] | 5.53 ± 0.25 | 5.37 ± 0.43 | – | – |
| QSRRTALATSPITVGDLGIVRRRS [YJU2B] | 4.27 ± 0.16 | 4.36 ± 0.25 | – | – |
| GQFYLDLYPREGKYNHAACFGLQP [NLN] | 1.91 ± 0.16 | 2.09 ± 0.31 | – | – |
| RLAELLLLETDAGPAASEGAEQPP [GADD45A] | 3.26 ± 0.22 | 3.6 ± 0.56 | – | – |
| NKTKPIWTRNPDDITQEEYGEFYK [HSP90AB1] | 4.36 ± 0.42 | 4.49 ± 0.44 | – | – |
| EVRYYLRQIVSGLKYLHEQEILHR [PLK2] | 3.11 ± 1 | 2.91 ± 0.58 | – | – |
